Laboratory results as given in US20140087995A1 (published 2014).
Numbered stars: 1 amine (or outer) side, 2 acyl side, 3 side chain; on linkers, the order of the positions; unused ones are H or OH. Bridge positions count the residues as written; N and C are the ends. Side chains are listed from the residue outwards. Ends that are not written are not given here. * marks the point of attachment. C20 diacid = O=C(O)CCCCCCCCCCCCCCCCCCC(=O)*; γGlu = O=C(O)[C@H](CCC(=O)[*:2])N[*:1]; AEEA = NCCOCCOCC(=O)O

T1: rat calcitonin receptor (rat, UniProt P32214 25-516)
T1 construct: whole, on cells; Used as membranes prepared from the transfected cells; also called rCTR; rat calcitonin (a) receptor
T1 sequence (looked up): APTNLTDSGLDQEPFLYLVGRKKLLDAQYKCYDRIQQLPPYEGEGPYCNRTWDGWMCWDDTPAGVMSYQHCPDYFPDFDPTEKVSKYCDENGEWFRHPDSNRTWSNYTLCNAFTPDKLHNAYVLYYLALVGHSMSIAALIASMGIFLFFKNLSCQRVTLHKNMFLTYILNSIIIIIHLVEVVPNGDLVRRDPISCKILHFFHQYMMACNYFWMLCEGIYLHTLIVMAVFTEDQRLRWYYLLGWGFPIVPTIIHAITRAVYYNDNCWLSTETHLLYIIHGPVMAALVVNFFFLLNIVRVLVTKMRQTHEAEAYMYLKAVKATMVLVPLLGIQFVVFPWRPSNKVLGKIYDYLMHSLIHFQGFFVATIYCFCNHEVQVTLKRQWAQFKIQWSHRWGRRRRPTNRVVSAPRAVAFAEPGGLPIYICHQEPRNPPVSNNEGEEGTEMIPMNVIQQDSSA

T2: human calcitonin receptor (human, UniProt P30988 25-474)
T2 construct: whole, on cells; Used as membranes prepared from the transfected cells (Assay VII); also called hCTR; hCT
T2 sequence (looked up): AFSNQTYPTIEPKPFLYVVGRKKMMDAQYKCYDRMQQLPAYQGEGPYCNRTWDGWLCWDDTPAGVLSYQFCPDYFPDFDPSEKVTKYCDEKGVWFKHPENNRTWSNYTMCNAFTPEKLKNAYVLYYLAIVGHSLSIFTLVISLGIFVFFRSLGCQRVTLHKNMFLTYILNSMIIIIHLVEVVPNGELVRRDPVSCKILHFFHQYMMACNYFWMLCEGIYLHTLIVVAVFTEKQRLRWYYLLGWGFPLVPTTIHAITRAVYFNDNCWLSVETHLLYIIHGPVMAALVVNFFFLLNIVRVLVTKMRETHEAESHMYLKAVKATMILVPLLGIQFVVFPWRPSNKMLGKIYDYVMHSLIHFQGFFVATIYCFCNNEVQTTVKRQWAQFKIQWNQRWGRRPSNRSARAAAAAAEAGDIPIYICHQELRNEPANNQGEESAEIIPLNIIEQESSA

T3: rat amylin receptor (rat calcitonin receptor + rat RAMP 3) (rat, UniProt P32214 25-516; Q9JJ73 23-147)
T3 construct: whole, on cells; Used as membranes prepared from the transfected cells; also called rAmylin-R; rat amylin 3(a) receptor
T3 sequence (looked up) 1: T1 sequence (looked up)
T3 sequence (looked up) 2: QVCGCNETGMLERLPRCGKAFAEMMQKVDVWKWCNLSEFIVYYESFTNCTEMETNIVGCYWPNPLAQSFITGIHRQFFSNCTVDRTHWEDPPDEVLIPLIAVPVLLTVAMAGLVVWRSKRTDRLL

B1: N^ε1-[2-[2-[2-[[2-[2-[2-[[(4S)-4-carboxy-4-(19-carboxynonadecanoylamino)butanoyl]amino]ethoxy]ethoxy]acetyl]amino]ethoxy]ethoxy]acetyl]-[Arg17,Pro21,Pro27,Glu35 … (peptide)
peptide: K([AEEA-AEEA-γGlu-C20 diacid])CNTATCATQRLANFLRHSSPNFGAIPSSTNVGSETY-NH2
modifications: disulfide 2-7; N-terminus assumed
SMILES: CC[C@H](C)[C@H](NC(=O)[C@H](C)NC(=O)CNC(=O)[C@H](Cc1ccccc1)NC(=O)[C@H](CC(N)=O)NC(=O)[C@@H]1CCCN1C(=O)[C@H](CO)NC(=O)[C@H](CO)NC(=O)[C@H](Cc1c[nH]cn1)NC(=O)[C@H](CCCNC(=N)N)NC(=O)[C@H](CC(C)C)NC(=O)[C@H](Cc1ccccc1)NC(=O)[C@H](CC(N)=O)NC(=O)[C@H](C)NC(=O)[C@H](CC(C)C)NC(=O)[C@H](CCCNC(=N)N)NC(=O)[C@H](CCC(N)=O)NC(=O)[C@@H](NC(=O)[C@H](C)NC(=O)[C@@H]1CSSC[C@H](NC(=O)[C@@H](N)CCCCNC(=O)COCCOCCNC(=O)COCCOCCNC(=O)CC[C@H](NC(=O)CCCCCCCCCCCCCCCCCCC(=O)O)C(=O)O)C(=O)N[C@@H](CC(N)=O)C(=O)N[C@@H]([C@@H](C)O)C(=O)N[C@@H](C)C(=O)N[C@@H]([C@@H](C)O)C(=O)N1)[C@@H](C)O)C(=O)N1CCC[C@H]1C(=O)N[C@@H](CO)C(=O)N[C@@H](CO)C(=O)N[C@H](C(=O)N[C@@H](CC(N)=O)C(=O)N[C@H](C(=O)NCC(=O)N[C@@H](CO)C(=O)N[C@@H](CCC(=O)O)C(=O)N[C@H](C(=O)N[C@@H](Cc1ccc(O)cc1)C(N)=O)[C@@H](C)O)C(C)C)[C@@H](C)O
notes: Derivative of human amylin; also called compound 25
B2: N^ε1-[(4S)-4-carboxy-4-(19-carboxynonadecanoylamino)butanoyl]-[Arg17,Pro21,Pro27,Lys35]-h-amylin (peptide)
peptide: K([γGlu-C20 diacid])CNTATCATQRLANFLRHSSPNFGAIPSSTNVGSKTY-NH2
modifications: disulfide 2-7; N-terminus assumed
SMILES: CC[C@H](C)[C@H](NC(=O)[C@H](C)NC(=O)CNC(=O)[C@H](Cc1ccccc1)NC(=O)[C@H](CC(N)=O)NC(=O)[C@@H]1CCCN1C(=O)[C@H](CO)NC(=O)[C@H](CO)NC(=O)[C@H](Cc1c[nH]cn1)NC(=O)[C@H](CCCNC(=N)N)NC(=O)[C@H](CC(C)C)NC(=O)[C@H](Cc1ccccc1)NC(=O)[C@H](CC(N)=O)NC(=O)[C@H](C)NC(=O)[C@H](CC(C)C)NC(=O)[C@H](CCCNC(=N)N)NC(=O)[C@H](CCC(N)=O)NC(=O)[C@@H](NC(=O)[C@H](C)NC(=O)[C@@H]1CSSC[C@H](NC(=O)[C@@H](N)CCCCNC(=O)CC[C@H](NC(=O)CCCCCCCCCCCCCCCCCCC(=O)O)C(=O)O)C(=O)N[C@@H](CC(N)=O)C(=O)N[C@@H]([C@@H](C)O)C(=O)N[C@@H](C)C(=O)N[C@@H]([C@@H](C)O)C(=O)N1)[C@@H](C)O)C(=O)N1CCC[C@H]1C(=O)N[C@@H](CO)C(=O)N[C@@H](CO)C(=O)N[C@H](C(=O)N[C@@H](CC(N)=O)C(=O)N[C@H](C(=O)NCC(=O)N[C@@H](CO)C(=O)N[C@@H](CCCCN)C(=O)N[C@H](C(=O)N[C@@H](Cc1ccc(O)cc1)C(N)=O)[C@@H](C)O)C(C)C)[C@@H](C)O
notes: Derivative of human amylin; also called compound 35
B3: N^ε1-[(4S)-4-carboxy-4-(19-carboxynonadecanoylamino)butanoyl]-[Arg17,Pro21,Pro27,Glu35]-h-amylin (peptide)
peptide: K([γGlu-C20 diacid])CNTATCATQRLANFLRHSSPNFGAIPSSTNVGSETY-NH2
modifications: disulfide 2-7; N-terminus assumed
SMILES: CC[C@H](C)[C@H](NC(=O)[C@H](C)NC(=O)CNC(=O)[C@H](Cc1ccccc1)NC(=O)[C@H](CC(N)=O)NC(=O)[C@@H]1CCCN1C(=O)[C@H](CO)NC(=O)[C@H](CO)NC(=O)[C@H](Cc1c[nH]cn1)NC(=O)[C@H](CCCNC(=N)N)NC(=O)[C@H](CC(C)C)NC(=O)[C@H](Cc1ccccc1)NC(=O)[C@H](CC(N)=O)NC(=O)[C@H](C)NC(=O)[C@H](CC(C)C)NC(=O)[C@H](CCCNC(=N)N)NC(=O)[C@H](CCC(N)=O)NC(=O)[C@@H](NC(=O)[C@H](C)NC(=O)[C@@H]1CSSC[C@H](NC(=O)[C@@H](N)CCCCNC(=O)CC[C@H](NC(=O)CCCCCCCCCCCCCCCCCCC(=O)O)C(=O)O)C(=O)N[C@@H](CC(N)=O)C(=O)N[C@@H]([C@@H](C)O)C(=O)N[C@@H](C)C(=O)N[C@@H]([C@@H](C)O)C(=O)N1)[C@@H](C)O)C(=O)N1CCC[C@H]1C(=O)N[C@@H](CO)C(=O)N[C@@H](CO)C(=O)N[C@H](C(=O)N[C@@H](CC(N)=O)C(=O)N[C@H](C(=O)NCC(=O)N[C@@H](CO)C(=O)N[C@@H](CCC(=O)O)C(=O)N[C@H](C(=O)N[C@@H](Cc1ccc(O)cc1)C(N)=O)[C@@H](C)O)C(C)C)[C@@H](C)O
notes: Derivative of human amylin; also called compound 27
B4: N^ε1-[2-[2-[2-[[(4S)-4-carboxy-4-(19-carboxynonadecanoylamino)butanoyl]amino]ethoxy]ethoxy]acetyl]-[Arg17,Pro21,Pro27,Glu35]-h-amylin (peptide)
peptide: K([AEEA-γGlu-C20 diacid])CNTATCATQRLANFLRHSSPNFGAIPSSTNVGSETY-NH2
modifications: disulfide 2-7; N-terminus assumed
SMILES: CC[C@H](C)[C@H](NC(=O)[C@H](C)NC(=O)CNC(=O)[C@H](Cc1ccccc1)NC(=O)[C@H](CC(N)=O)NC(=O)[C@@H]1CCCN1C(=O)[C@H](CO)NC(=O)[C@H](CO)NC(=O)[C@H](Cc1c[nH]cn1)NC(=O)[C@H](CCCNC(=N)N)NC(=O)[C@H](CC(C)C)NC(=O)[C@H](Cc1ccccc1)NC(=O)[C@H](CC(N)=O)NC(=O)[C@H](C)NC(=O)[C@H](CC(C)C)NC(=O)[C@H](CCCNC(=N)N)NC(=O)[C@H](CCC(N)=O)NC(=O)[C@@H](NC(=O)[C@H](C)NC(=O)[C@@H]1CSSC[C@H](NC(=O)[C@@H](N)CCCCNC(=O)COCCOCCNC(=O)CC[C@H](NC(=O)CCCCCCCCCCCCCCCCCCC(=O)O)C(=O)O)C(=O)N[C@@H](CC(N)=O)C(=O)N[C@@H]([C@@H](C)O)C(=O)N[C@@H](C)C(=O)N[C@@H]([C@@H](C)O)C(=O)N1)[C@@H](C)O)C(=O)N1CCC[C@H]1C(=O)N[C@@H](CO)C(=O)N[C@@H](CO)C(=O)N[C@H](C(=O)N[C@@H](CC(N)=O)C(=O)N[C@H](C(=O)NCC(=O)N[C@@H](CO)C(=O)N[C@@H](CCC(=O)O)C(=O)N[C@H](C(=O)N[C@@H](Cc1ccc(O)cc1)C(N)=O)[C@@H](C)O)C(C)C)[C@@H](C)O
notes: Derivative of human amylin; also called compound 26
B5: N^ε1-[2-[2-[2-[[(4S)-4-carboxy-4-(19-carboxynonadecanoylamino)butanoyl]amino]ethoxy]ethoxy]acetyl]-[Arg17,Pro21,Pro27]-h-amylin (peptide)
peptide: K([AEEA-γGlu-C20 diacid])CNTATCATQRLANFLRHSSPNFGAIPSSTNVGSNTY-NH2
modifications: disulfide 2-7; N-terminus assumed
SMILES: CC[C@H](C)[C@H](NC(=O)[C@H](C)NC(=O)CNC(=O)[C@H](Cc1ccccc1)NC(=O)[C@H](CC(N)=O)NC(=O)[C@@H]1CCCN1C(=O)[C@H](CO)NC(=O)[C@H](CO)NC(=O)[C@H](Cc1c[nH]cn1)NC(=O)[C@H](CCCNC(=N)N)NC(=O)[C@H](CC(C)C)NC(=O)[C@H](Cc1ccccc1)NC(=O)[C@H](CC(N)=O)NC(=O)[C@H](C)NC(=O)[C@H](CC(C)C)NC(=O)[C@H](CCCNC(=N)N)NC(=O)[C@H](CCC(N)=O)NC(=O)[C@@H](NC(=O)[C@H](C)NC(=O)[C@@H]1CSSC[C@H](NC(=O)[C@@H](N)CCCCNC(=O)COCCOCCNC(=O)CC[C@H](NC(=O)CCCCCCCCCCCCCCCCCCC(=O)O)C(=O)O)C(=O)N[C@@H](CC(N)=O)C(=O)N[C@@H]([C@@H](C)O)C(=O)N[C@@H](C)C(=O)N[C@@H]([C@@H](C)O)C(=O)N1)[C@@H](C)O)C(=O)N1CCC[C@H]1C(=O)N[C@@H](CO)C(=O)N[C@@H](CO)C(=O)N[C@H](C(=O)N[C@@H](CC(N)=O)C(=O)N[C@H](C(=O)NCC(=O)N[C@@H](CO)C(=O)N[C@@H](CC(N)=O)C(=O)N[C@H](C(=O)N[C@@H](Cc1ccc(O)cc1)C(N)=O)[C@@H](C)O)C(C)C)[C@@H](C)O
notes: Derivative of human amylin; also called compound 41

Biological target: T1, rat calcitonin receptor
Assay: ratio IC50 rat calcitonin receptor / IC50 rat amylin receptor (Assays VIII and VI)

Ratio rCT/rAmylin binding	Binder
37.7	B1
65.1	B2
147	B3
309	B4
54	B5

Biological target: T2, human calcitonin receptor
Assay: ratio IC50 human calcitonin receptor / IC50 human amylin receptor (Assays VII and V)
Outline: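 Competition binding by SPA with cell membranes (35 ng/μL) and SPA beads in 50 mM Hepes pH 7.4 with 1 mM CaCl2, 5 mM MgCl2, 0.1% OA and 0.02% Tween20. Incubated 120 min at 25 °C with shaking, then counted.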

Ratio hCT/hAmylin binding	Binder
56.5	B1
50.3	B2
41.3	B3
47.5	B4
49.9	B5

Biological target: T1, rat calcitonin receptor
Assay: SPA competition with 125I-calcitonin, membranes of BHK cells with rat calcitonin receptor (Assay VIII)

IC50 [nM]	Binder
131	B1
61.7	B2
90.2	B3
152	B4
74.1	B5

Biological target: T3, rat amylin receptor (rat calcitonin …)
Assay: SPA competition with 125I-rat amylin, membranes of BHK cells with rat calcitonin receptor + rat RAMP3 (Assay VI)

IC50 [nM]	Binder
3.48	B1
0.948	B2
0.614	B3
0.491	B4
1.37	B5
